# Target: polymerization-deficient p62 PB1 domain D69A/D73A (human) (UniProt Q13501)
# Assay: ITC
substance,measurement,value
"human NBR1 PB1 domain, residues 1-85 (ITC) (from UniProt Q14596 1-85) (domain or fragment)",Kd,12.6 nM

# Source: doi:10.1101/671792
